# T1: GST-HPV16 L2 fusion protein (HPV16, UniProt P03107 1-473)
# T1 construct: Specificity control antigen in the ELISA; also called recombinant protein HPV16 L2; not shown: glutathione S-transferase (GST) fusion partner
# T1 sequence: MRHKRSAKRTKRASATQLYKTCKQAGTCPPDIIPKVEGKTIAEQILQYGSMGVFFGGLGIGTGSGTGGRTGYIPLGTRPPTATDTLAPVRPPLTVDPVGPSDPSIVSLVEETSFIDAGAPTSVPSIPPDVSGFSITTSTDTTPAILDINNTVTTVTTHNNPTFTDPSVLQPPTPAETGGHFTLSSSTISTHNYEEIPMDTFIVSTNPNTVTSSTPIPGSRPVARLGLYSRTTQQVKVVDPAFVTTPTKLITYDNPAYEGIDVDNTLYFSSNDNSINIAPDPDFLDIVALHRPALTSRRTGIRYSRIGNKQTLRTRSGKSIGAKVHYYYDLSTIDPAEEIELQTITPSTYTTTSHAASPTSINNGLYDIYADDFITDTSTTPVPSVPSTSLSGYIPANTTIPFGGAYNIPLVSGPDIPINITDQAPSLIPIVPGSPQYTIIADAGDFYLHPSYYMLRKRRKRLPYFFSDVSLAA
# T2: polypeptide HPV16 E7-1 (HPV16)
# T2 peptide: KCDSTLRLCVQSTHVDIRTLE
# T3: His-HPV16 E7 recombinant fusion protein (HPV16, UniProt P03129 2-98)
# T3 construct: also called recombinant protein HPV16 E7; not shown: His tag
# T3 sequence: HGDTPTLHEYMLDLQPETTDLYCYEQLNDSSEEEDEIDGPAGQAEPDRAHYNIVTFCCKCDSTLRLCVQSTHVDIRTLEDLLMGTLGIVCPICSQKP
# B1: anti-HPV16 E7 monoclonal antibody 7B6 (antibody, V domains shown)
# VH: VKLQESGPELVKPGASMKISCKASGYSFTGSTMNWVKQSHGKNLEWIGLIDPYNGVIRYNQKFKGRATLTIDKSSSTAYMELLSLTSDDSAVYYCARKLRYWGQGTTLTVSS
# VL: ATQSPSSLNVSPGEKVTMSCKSSQSLLNSGNQRNYLAWYQQKPGQPPKLLIYGASTRESGVPDRFTGSGSGTDFTLTISSVQAEDLAVYYCQNDLSYPLTFGAGTKLELK
# notes: also called mAb anti-HPV16E7 7B6
# Experiments:
# [1] = target: T1, GST-HPV16 L2 fusion protein; assay: indirect ELISA on coated antigen
# polypeptide HPV16 E7-1 = target: T2, polypeptide HPV16 E7-1; assay: indirect ELISA on coated peptide
# [2] = target: T3, His-HPV16 E7 recombinant fusion protein; assay: indirect ELISA, method of Beatty et al.; reference 1H11
# [3] = target: T3, His-HPV16 E7 recombinant fusion protein; assay: indirect ELISA, method of Beatty et al.; His-HPV16 E7 coated at 4 concentrations, 7B6 in 8 two-fold dilutions from 2 µg/ml; mean of 6 K values
# [4] = target: T3, His-HPV16 E7 recombinant fusion protein; assay: indirect ELISA, method of Beatty et al.; reference 2G7
# Protocol: There were total 8 gradients and then ELISA test was conducted. The obtained values were plot into Kaff=(n−1)/2(n [Ab′]−[Ab]) to obtain the affinity constant. […] It means using the antibody concentration corresponding to half of the highest OD value (50% OD) on the curve through graphing method. In this equation, n=Ag/Ag′. Then each two of them were compared, when n=4, three K values could be obtained, when n=16, two K values could be obtained and when n=64, one K values could be obtained then calculate the average of these six values as the result.
binder,measurement,setting,value
B1,binding result,[1],no binding (tested: 7B6 1 µg/ml; antigen coated at 2 µg/ml)
same,binding result,polypeptide HPV16 E7-1,no binding
same,fold of binding affinity over 1H11,[2],5 fold
same,Kd,[3],0.64 nM
same,fold of binding affinity over 2G7,[4],2 fold

# — patent publication US20170315124A1 (ATTOGEN BIOMEDICAL SUZHOU, published 2017)
